According to patent publication US20020110853A1 (IMMUNEX, published 2002):

Tests used:
[1] = target: T1, DR3, expressed on transfected COS cells (UniProt Q93038 25-417, limits assumed); experiment: slide binding on transfected COS cells, 125I anti-leucine zipper antibody, autoradiography
T1 construct: whole, on cells; also called Apo3; WSL-1
T1 sequence (looked up): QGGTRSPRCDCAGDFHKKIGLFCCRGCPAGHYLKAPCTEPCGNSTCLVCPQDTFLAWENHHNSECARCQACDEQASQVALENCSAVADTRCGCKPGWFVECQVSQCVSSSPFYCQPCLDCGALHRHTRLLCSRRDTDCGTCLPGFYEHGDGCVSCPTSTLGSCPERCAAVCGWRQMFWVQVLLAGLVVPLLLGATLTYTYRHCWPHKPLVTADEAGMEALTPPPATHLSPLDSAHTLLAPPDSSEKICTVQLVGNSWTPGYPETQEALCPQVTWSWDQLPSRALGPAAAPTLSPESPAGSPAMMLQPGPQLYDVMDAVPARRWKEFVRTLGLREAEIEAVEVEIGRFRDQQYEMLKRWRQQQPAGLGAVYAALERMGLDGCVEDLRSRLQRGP
Protocol: Slides of COS cells were transfected with expression vectors containing TWEAKR, DR3, or vector without insert (control). After two days the cells were incubated with concentrated supernatants from CV-1 cells transfected with a vector encoding the leucine zipper TWEAK extracellular domain fusion protein. One hour later the cells were washed and probed with an ¹²⁵Ilabeled antibody against the leucine-zipper domain. The slides were washed, fixed, and autoradiography was performed using x-ray film. The TWEAKR transfected cells bound significant amounts of TWEAK. […] This experiment confirmed that the TWEAKR polypeptide identified in part A above, rather than DR3, is the major receptor for TWEAK. After discovery of the functional TWEAK receptor, other investigators also reported that DR3 is not the major receptor for TWEAK (Kaptein et al., FEBS Lett., 485(2-3):135, 2000. The TWEAK-TWEAKR binding interaction was further characterized by Scatchard analysis.

[2] = target: T2, human TWEAK receptor (TWEAKR), expressed on transfected COS cells (human, UniProt Q9NP84 28-129); experiment: expression cloning by panning with TWEAK coated beads, then slide binding on transfected COS cells
T2 construct: 129 residue polypeptide cloned from a HUVEC library; Signal peptide 1-27 is predicted
T2 sequence: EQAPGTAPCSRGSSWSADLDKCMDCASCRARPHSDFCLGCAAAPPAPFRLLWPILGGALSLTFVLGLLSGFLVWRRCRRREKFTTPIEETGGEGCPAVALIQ
Text: To clone TWEAKR cDNA, an expression vector encoding a growth hormone leader, a leucine zipper multimerization domain, and the C-terminal extracellular domain of human TWEAK (see Chicheportiche et al., J. Biol. Chem. 272(51):32401, 1997) was constructed. This expression vector, which was named pDC409-LZ-TWEAK, comprised the DNA sequence SEQ ID NO: 1 and encoded the polypeptide SEQ ID NO:2. pDC409-LZ-TWEAK conditioned supernatants were produced by transient transfection into CVI-EBNA cells. These supernatants were incubated with magnetic beads coated with polyclonal goat anti-mouse antibody that had previously been incubated with a mouse monoclonal antibody against the leucine zipper. Control beads were produced by mixing the coated beads with supernatants from cells transfected with empty vector.
A monolayer of COS cells grown in a T175 flask was transfected with 15 μg of DNA pools of complexity of 100,000 from a human umbilical vein endothelial cell (HUVEC) cDNA expression library. After 2 days these cells were lifted from the flask, and incubated in 1.5 mls of binding media plus 5% non-fat dried milk for 3 hours at 4° C. on a rotator wheel. […] Slide binding was performed as described more fully below, with the exception that TWEAKR positive slides were detected by incubation with […] followed by incubation with ¹²⁵I-labled M15 anti-leucine zipper.

[3] = target: T3, human TWEAKR-Fc (TWEAKR extracellular domain fused to Fc portion from human IgG1) (human, 125-I labeled in the Scatchard assay); experiment: ligand blot of TweakR-Fc (with and without DTT, with and without heating at 100° C.) probed with TWEAK-leucine zipper supernatant and 125I M15 anti-leucine zipper
T3 construct: the assays name only TWEAKR-Fc; also called huTWEAKR-Fc
Protocol: Ligand blots were generated by running either TweakR-Fc or RP-Fc as a control on a standard SDS-PAGE and blotted onto nitrocellulose. The separate samples were prepared by with and without the addition of reducing agent (DTT) and with and without heating at 100° C. to denature the proteins. This blot was probed with TWEAK-leucine zipper conditioned supernatants followed by ¹²⁵I labeled M15 anti-leucine zipper.

- binding result [1]: no binding
- binding result [2]: binds
- binding result [3]: binds
B1: leucine zipper TWEAK extracellular domain fusion protein (product of pDC409-LZ-TWEAK) (ligand)
chain: not shown
notes: Used as conditioned supernatant of transfected CV-1/EBNA cells; also called TWEAK-leucine zipper
